Experimental data taken from US5919790A, “Hydroxamate inhibitors of interleukin-1β converting enzyme” (Warner-Lambert Company, priority 1997, dated 1999).

Substrate: CC(=O)N[C@@H](Cc1ccc(O)cc1)C(=O)N[C@H](C(=O)N[C@@H](C)C(=O)N[C@@H](CC(=O)O)C(=O)Nc1ccc2c(C)cc(=O)oc2c1)C(C)C
Assay: ICE inhibition, Ki, fluorescence assay with Ac-Tyr-Val-Ala-Asp-AMC
Format: biochemical
Conditions: other: substrate of ICE, HGDE buffer
Method: Substrate hydrolysis is monitored for 300 seconds by observing the fluorescence of released AMC using excitation at 380 nm and emission at 460 nm. Mean rates of substrate hydrolysis are evaluated by linear-regression analysis of the fluorescence vs time traces. […] ICE Colorimetric Dose-Response (IC50) Assay

B1: ICE (interleukin-1β converting enzyme) (Homo sapiens) (protein)
chain 1: NPAMPTSSGSEGNVKLCSLEEAQRIWKQKSAEIYPIMDKSSRTRLALIICNEEFDSIPRRTGAEVDITGMTMLLQNLGYSVDVKKNLTASDMTTELEAFAHRPEHKTSDSTFLVFMSHGIREGICGKKHSEQVPDILQLNAIFNMLNTKNCPSLKDKPKVIIIQACRGDSPGVVWFKD
chain 2: AIKKAHIEKDFIAFCSSTPDNVSWRHPTMGSVFIGRLIEHMQEYACSCDVEEIFRKVRFSFEQPDGRAQMPTTERVTLTRCFYLFPGH
In the case of B1, the Km is reported as 15 µM.
